# B1: wild type AcrB (Escherichia coli multidrug transporter AcrB) [E. coli] / itself (parent)
# chain: MPNFFIDRPIFAWVIAIIIMLAGGLAILKLPVAQYPTIAPPAVTISASYPGADAKTVQDTVTQVIEQNMNGIDNLMYMSSNSDSTGTVQITLTFESGTDADIAQVQVQNKLQLAMPLLPQEVQQQGVSVEKSSSSFLMVVGVINTDGTMTQEDISDYVAANMKDAISRTSGVGDVQLFGSQYAMRIWMNPNELNKFQLTPVDVITAIKAQNAQVAAGQLGGTPPVKGQQLNASIIAQTRLTSTEEFGKILLKVNQDGSRVLLRDVAKIELGGENYDIIAEFNGQPASGLGIKLATGANALDTAAAIRAELAKMEPFFPSGLKIVYPYDTTPFVKISIHEVVKTLVEAIILVFLVMYLFLQNFRATLIPTIAVPVVLLGTFAVLAAFGFSINTLTMFGMVLAIGLLVDDAIVVVENVERVMAEEGLPPKEATRKSMGQIQGALVGIAMVLSAVFVPMAFFGGSTGAIYRQFSITIVSAMALSVLVALILTPALCATMLKPIAKGDHGEGKKGFFGWFNRMFEKSTHHYTDSVGGILRSTGRYLVLYLIIVVGMAYLFVRLPSSFLPDEDQGVFMTMVQLPAGATQERTQKVLNEVTHYYLTKEKNNVESVFAVNGFGFAGRGQNTGIAFVSLKDWADRPGEENKVEAITMRATRAFSQIKDAMVFAFNLPAIVELGTATGFDFELIDQAGLGHEKLTQARNQLLAEAAKHPDMLTSVRPNGLEDTPQFKIDIDQEKAQALGVSINDINTTLGAAWGGSYVNDFIDRGRVKKVYVMSEAKYRMLPDDIGDWYVRAADGQMVPFSAFSSSRWEYGSPRLERYNGLPSMEILGQAAPGKSTGEAMELMEQLASKLPTGVGYDWTGMSYQERLSGNQAPSLYAISLIVVFLCLAALYESWSIPFSVMLVVPLGVIGALLAATFRGLTNDVYFQVGLLTTIGLSAKNAILIVEFAKDLMDKEGKGLIEATLDAVRMRLRPILMTSLAFILGVMPLVISTGAGSGAQNAVGTGVMGGMVTATVLAIFFVPVFFVVVRRRFSRKNEDIEHSHTVDHH
# Variants of: B1
# Assay: BN-PAGE
# Conditions: with itself; read off a plot
row,Variant,screen value
1,chain 1 Q737L P223G,0.075
2,chain 1 P223G,0.26
3,chain 1 D256N P223G,0.41
4,chain 1 T199M P223G,0.7
5,chain 1 E810K P223G,0.11
6,chain 1 P800S P223G,0.11
7,chain 1 A209V P223G,0.4
8,chain 1 M662I P223G,0.19
9,chain 1 D788K P223G,0.15
10,chain 1 G257V P223G,0.15
